In patent publication US12747297 (dated 2026):
Positions count from the first letter of the chain named.

B1: 4R.N8 (antibody, V domains shown)
VH: EVQLLESGGGLVQPGGSLRLSCAASGFTFSRHAMAWVRQAPGKGLEWVSAITMSGRSIYYADSVKGRFTISRDNSKNTLYLQMNSLRAEDTAVYYCARVHRAFDYWGQGTLVTVSS
VL: QSVLTQPPSASGTPGQRVTISCSGSPLFPDSGSFNWYQQLPGTAPKLLIYADSHRPSGVPDRFSGSKSGTSASLAISGLRSEDEADYYCGTWDYSLSRYVLGGGTKLTVLG
B2: 4R.N2 (antibody, V domains shown)
VH: B1 VH with M53A, A61G
VL: B1 VL with R98A
B3: 5R65.39 (antibody, V domains shown)
VH: QVQLVQSGAEVKKPGSSVKVSCKASGYTFTSYWINWVRQAPGQGLEWIGHIYPNKNENYYNHKFKDKATLTVDKSTNTAYMELSSLRSEDTAVYYCTREFYGRSRYSAMDYWGQGTTLTVSS
VL: DIQMTQSPSTLSASVGDRVTITCKASQNVGTAVAWYQQKPGKAPKLLIYWASTRHTGVPDRFSGSGSGTDFTLTISSLQPDDFATYYCQQFGRYPYTFGSGTKVEVK
B4: 5R65 (antibody, V domains shown)
VH: B3 VH with E99D, F100Y, R105Y, S107Y
VL: B3 VL
B5: 5R65.7 (antibody, V domains shown)
VH: B3 VH with S104Q, R105Y, S107Q
VL: B3 VL
B6: 5R65.10 (antibody, V domains shown)
VH: B3 VH with F100Y, R105Y, S107A
VL: B3 VL
B7: 5R65.18 (antibody, V domains shown)
VH: B3 VH with F100Y, S104T, R105Y
VL: B3 VL
B8: 5R65.14 (antibody, V domains shown)
VH: B3 VH with F100H, S104P, R105Y, S107N
VL: B3 VL

molecular target: sIL-4Rα (human); assay: BLI
Sequence (chain, as listed by the source): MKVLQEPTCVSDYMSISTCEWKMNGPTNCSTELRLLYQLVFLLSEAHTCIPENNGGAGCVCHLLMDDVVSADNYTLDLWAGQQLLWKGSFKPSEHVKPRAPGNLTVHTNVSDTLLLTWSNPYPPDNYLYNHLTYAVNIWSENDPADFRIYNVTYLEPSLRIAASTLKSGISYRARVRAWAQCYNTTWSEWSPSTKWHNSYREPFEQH

Row | Binder | Kd [nM]
1 | B1 | 0.0802
2 | B2 | 0.108

molecular target: sIL-4Rα (human); assay: not given

Row | Binder | binding result
3 | B3 | no binding
4 | B4 | no binding
5 | B5 | no binding
6 | B6 | no binding
7 | B7 | no binding
8 | B8 | no binding
